Laboratory results published in US20190185557 (published 2019).
Changes are numbered by the printed parent chain.

Legend:
[1] = target: T1, FcγRIIaH (human, UniProt P12318); test: SPR
T1 chain: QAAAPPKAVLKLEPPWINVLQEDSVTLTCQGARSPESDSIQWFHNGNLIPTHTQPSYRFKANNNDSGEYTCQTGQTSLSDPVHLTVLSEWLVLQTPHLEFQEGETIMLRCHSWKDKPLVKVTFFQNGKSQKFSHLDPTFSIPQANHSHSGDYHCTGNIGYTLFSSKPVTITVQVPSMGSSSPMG

[2] = target: T2, FcγRIa (human, UniProt P12314); test: SPR
T2 chain: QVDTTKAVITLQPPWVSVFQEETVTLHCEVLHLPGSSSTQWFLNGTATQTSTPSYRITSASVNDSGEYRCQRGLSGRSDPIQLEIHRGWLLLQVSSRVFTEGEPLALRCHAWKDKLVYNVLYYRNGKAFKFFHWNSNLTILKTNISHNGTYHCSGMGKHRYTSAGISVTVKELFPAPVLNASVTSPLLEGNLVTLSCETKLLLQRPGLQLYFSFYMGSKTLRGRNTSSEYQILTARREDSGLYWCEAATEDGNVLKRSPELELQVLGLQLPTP

B1: IL6R-BP507/IL6R-L (antibody)
chain 1: QVQLQESGPGLVKPSETLSLTCAVSGHSISHDHAWSWVRQPPGEGLEWIGFISYSGITNYNPSLQGRVTISRDNSKNTLYLQMNSLRAEDTAVYYCARSLARTTAMDYWGEGTLVTVSSASTKGPSVFPLAPSSKSTSGGTAALGCLVKDYFPEPVTVSWNSGALTSGVHTFPAVLQSSGLYSLSSVVTVPSSSLGTQTYICNVNHKPSNTKVDKKVEPKSCDKTHTCPPCPAPDLLGDDSVFLFPPKPKDTLMISRTPEVTCVVIDVAEEDGPVKFNWYVDGVEVHNAKTKPREEQYNSTYRVVSVLTVLHQDWLNGKEYKCKVSNKALPRPIEKTISKAKGQPREPQVYTLPPSRDELTKNQVSLTCLVKGFYPSDIAVEWESNGQPENNYKTTPPVLDSDGSFFLYSKLTVDKSRWQQGNVFSCSVMHEALHNHYTQESLSLSP
chain 2: not shown
- Kd [1]: 1800 nM

B2: IL6R-BP506/IL6R-L (antibody)
chain 1: B1 chain 1 with Y298D
chain 2: not shown
- Kd [1]: 2500 nM

B3: IL6R-BP490/IL6R-L (antibody)
chain 1: B1 chain 1 with D235E, P274E
chain 2: not shown
- Kd [1]: 2400 nM

B4: IL6R-BP445/IL6R-L (antibody)
chain 1: B1 chain 1 with P274E
chain 2: not shown
- Kd [1]: 1500 nM

B5: IL6R-BP480/IL6R-L (antibody)
chain 1: B1 chain 1 with I266V, V268L, A269S, E271D, P274E, R332A
chain 2: not shown
- Kd [2]: 13 nM
